According to US20090011979A1 (VIRON THERAPEUTICS, published 2009):

B1: tagged YCI (YMTV IL-18 bp with a C-terminal myc/his tag) (other)
chain: EKECDKHRSVNIQVPMKETSEVLLRCTGSSYFKHFSYVYWLVGESETVDQLQQNSGYGETSHPSKPHECGNLPSADLVLTNMTEKMRDTKLTCVLMDPDGHIDESLVLREVWDCFNKT
notes: also called 6xHis-tagged YCI; his-tagged version of the YCI
B2: untagged YCI (YMTV IL-18 bp, YMTV Cytokine Inhibitor, without tag) (other)
chain: B1 chain
notes: also called IL-18 bp from YMTV; purified untagged YCI protein

Assays:
human IL-18 [1] = molecular target: T1, human IL-18 (human, UniProt Q14116 37-193); test: immunoprecipitation (row 'Human IL-18 immunoprecipitation')
T1 construct: also called hIL-18
T1 sequence: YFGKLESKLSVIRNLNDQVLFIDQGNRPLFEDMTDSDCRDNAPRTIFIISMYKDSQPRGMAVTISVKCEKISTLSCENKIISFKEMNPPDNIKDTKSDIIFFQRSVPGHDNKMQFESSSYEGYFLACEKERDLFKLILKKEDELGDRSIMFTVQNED

mouse IL-18 = molecular target: T2, mouse IL-18 (mouse, UniProt P70380 36-192); test: Biacore (row 'Human/mouse IL-18 Biacore')
T2 construct: also called murine IL-18
T2 sequence: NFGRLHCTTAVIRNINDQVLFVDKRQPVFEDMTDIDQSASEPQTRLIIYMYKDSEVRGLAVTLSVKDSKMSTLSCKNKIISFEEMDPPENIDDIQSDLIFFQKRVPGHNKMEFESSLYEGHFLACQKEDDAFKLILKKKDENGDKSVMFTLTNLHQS

human IL-18 [2] = molecular target: T1, human IL-18; test: Biacore (row 'Human/mouse IL-18 Biacore')

| Binder | binding result (human IL-18 [1]) | binding result (mouse IL-18) | binding result (human IL-18 [2]) |
| --- | --- | --- | --- |
| B1 | binds | binds |  |
| B2 |  | binds | binds |
